Assay results reported in publication doi:10.1101/380220 (bioRxiv, 2019).
Like-named read-outs stand apart in the source and are kept apart here. Values belong to the binder of their own block, whether it stands above or below them.

How the values were obtained:
[1] = biological target: T1, GTP-loaded Ras1.G17V (1-172) (fission yeast (Schizosaccharomyces …, UniProt P08647 1-172, G17V)); assay: pull-down
T1 sequence (looked up): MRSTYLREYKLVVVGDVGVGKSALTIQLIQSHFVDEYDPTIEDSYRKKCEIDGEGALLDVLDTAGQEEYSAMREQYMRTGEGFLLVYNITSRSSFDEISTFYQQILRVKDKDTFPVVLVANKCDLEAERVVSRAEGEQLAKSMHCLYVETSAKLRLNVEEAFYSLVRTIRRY

[2] = biological target: T1, GTP-loaded Ras1.G17V (1-172); assay: pull-down; remark: listed apart in the source

binding result [1]: binds
B1: GST-Scd1 (760-872) (domain or fragment, UniProt P40995 760-872, looked up)
chain: SSSTSTSLSVRNTTNVKIRLRLHEVSLVLVVAHDITFDELLAKVEHKIKLCGILKQAVPFRVRLKYVDEDGDFITITSDEDVLMAFETCTFELMDPVHNKGMDTVSLHVVVYF

binding result [2]: binds
B2: Scd1 (760-872) fragment (domain or fragment, UniProt P40995 760-872, looked up)
chain: B1 chain

binding result [1]: binds
B3: GST-Byr2 (65-180) (domain or fragment, UniProt P28829 65-180, looked up)
chain: REFPRPCILRFIACNGQTRAVQSRGDYQKTLAIALKKFSLEDASKFIVCVSQSSRIKLITEEEFKQICFNSSSPERDRLIIVPKEKPCPSFEDLRRSWEIELAQPAALSSQSSLSP
